This passage reports stoichiometry N results from publication PMC3268813.

Broadly, the stoichiometry N is a count of units in the complex or per binding partner.

The target of the experiment is synthetic wild-type CRN2 coiled coil peptide (human), Q9ULV4. Nature of the experiment: SEC-MALS. In general terms: SEC sorts molecules by how far they enter the pores of the column.

With VQNEAKLDEILKEIKSIKDTICNQDERISKLEQQMAKIAA (modifications not checked) [synthetic wild-type CRN2 coiled coil peptide, Q9ULV4 442-472], the stoichiometry N amounted to 3.
